Blank lines part the entries; values can stand above or below the binder they belong to.
Key:
[1] = target: T1, EGFRvIII extracellular domain (EGFR (1-29)-G-(298-645)-LESRGPF-Myc-NMHTG-6His) (human, UniProt P00533 298-641); assay: SPR (Biacore), antibody captured via anti-human Fc, antigen injected
T1 construct: also called recombinant EGFRvIII; not shown: Myc tag
Method: (§1) Biacore analysis was performed using a Biacore T100 with a CM5 sensory chip, and test antibodies were captured via anti-human Fc antibodies that were amino coupled to the chip using a standard amine coupling kit according to manufacturer's instructions (GE healthcare). Briefly, a CM5 chip surface was activated with EDC/NHS. Goat anti-human Fc specific polyclonal antibody (Thermo Fisher Scientific Inc., Rockford, Ill.) was diluted to 25 μg/mL in 10 mM sodium acetate (pH 4.5) and injected over the activated surface to achieve immobilization. Unreacted moieties on the biosensor surface were blocked with ethanolamine. The Biacore T100 is a surface plasmon resonance based biosensor for detecting, characterizing and quantifying bimolecular interactions, including the interactions between an antibody and its antigen. Antigen was injected at 80 μL/minute for 3 minutes and dissociation was followed for 15 minutes.

[2] = target: T2, truncated wild type EGFR 1-525 (EGFR1 (1-525)-SRGPF-Myc-NMHTG-6His) (human, UniProt P00533 25-525); assay: as above
T2 construct: the signal peptide is left out; not shown: Myc tag
Method: as §1

[3] = target: T3, wild type human EGFR on cells (A431, NHEK, SCC-15, H292) (human, UniProt P00533 25-1210); assay: FACS binding to normal human epidermal keratinocytes (NHEK), AlexaFluor 488 secondary antibody
T3 construct: Endogenous receptor of human cell lines and keratinocytes said to express wild type EGFR; also called wild type EGFR; wtEGFR
Method: NHEK cells express wild type EGFR.
Cells were harvested when approximately 80% confluent using trypsin, neutralized and washed once in PBS/1% FBS (FACS buffer) then resuspended at 2.5×10⁶ cells/mL in FACS buffer. 100 μL of cells/well were added to a round bottom 96-well plate. 10 μL of a 10x concentration of Ab (final concentrations are listed in the Figures) was added and plate was incubated at 4° C. for one hour. Wells were washed twice with FACS buffer then resuspended in 50 μL of secondary Ab (AlexaFluor 488) diluted in FACS buffer. The plate was incubated at 4° C. for one hour then washed twice with FACS buffer. Cells were then resuspended in 100 μL of PBS/1% formaldehyde and analyzed on a Becton Dickinson LSRII flow cytometer. Data was analyzed using WinList flow cytometry analysis software.

EGFRvIII on U87MG cells = target: T4, EGFRvIII on U87MG cells (human, UniProt P00533 298-1210); assay: competition FACS on U87MG de2-7 cells expressing EGFRvIII; competitor Ab1-FITC at 100 nM
T4 construct: also called de2-7 EGFR

[4] = target: T1, EGFRvIII extracellular domain (EGFR …); assay: SPR (Biacore T100), antibody captured on anti-human Fc, antigen in solution
Method: as §1

[5] = target: T2, truncated wild type EGFR 1-525 (EGFR1 …); assay: as above
Method: as §1

B1: Antibody N (AbN) (antibody, V domains shown)
VH: EVQLQESGPGLVKPSQTLSLTCTVSGYSIGRDFAWNWIRQPPGKGLEWMGYISYSGNTRYQPSLKSRITISRDTSKNQFFLKLNSVTAADTATYYCVTASRGFPYWGQGTLVTVSS
VL: DIQMTQSPSSMSVSVGDRVTITCHSSQDITYNVGWLQQKPGKSFKGLIYHGSNLDHGVPSRFSGSGSGTDYTLTISSLQPEDFATYYCVQYDDFPWTFGGGTKLEIK
notes: Full length IgG1
KD ratio (Ab1/variant Ab) [1]: 12.5 | Kd [1]: 0.75 nM | koff [1]: 0.000103 s⁻¹ | kon [1]: 137000 M⁻¹ s⁻¹ | KD ratio (Ab1/variant Ab) [2]: 642 | Kd [2]: 3.5 nM | koff [2]: 1.71e-05 s⁻¹ | kon [2]: 4840 M⁻¹ s⁻¹

B2: Antibody A (AbA) (antibody, human IgG1, kappa, V domains shown)
VH: EVQLQESGPGLVKPSQTLSLTCTVSGYSISRDFAWNWIRQPPGKGLEWMGYISYNGNTRYQPSLKSRITISRDTSKNQFFLKLNSVTAADTATYYCVTASRGFPYWGQGTLVTVSS
VL: DIQMTQSPSSMSVSVGDRVTITCHSSQDINSNIGWLQQKPGKSFKGLIYHGTNLDDGVPSRFSGSGSGTDYTLTISSLQPEDFATYYCVQYAQFPWTFGGGTKLEIKR
notes: IgG1
EC50 (read off the curve) [3]: ~50 nM | KD ratio (Ab1/variant Ab) [1]: 4.1 | koff [1]: 0.000173 s⁻¹ | kon [1]: 76100 M⁻¹ s⁻¹ | KD ratio (Ab1/variant Ab) [2]: 10.1 | koff [2]: 0.000731 s⁻¹ | kon [2]: 3260 M⁻¹ s⁻¹ | IC50 (read off the curve) (EGFRvIII on U87MG cells): ~30 nM | Kd [4]: 2.3 nM | fold increase in affinity versus Ab1 [4]: 4 fold | Kd [5]: 220 nM | fold improvement in KD over Ab1 [5]: 10 fold

B3: Antibody M (AbM) (antibody, V domains shown)
VH: EVQLQESGPGLVKPSQTLSLTCTVSGYSIGRDFAWNWIRQPPGKGLEWMGYISYNGNTRYQPSLKSRITISRDTSKNQFFLKLNSVTAADTATYYCVTASRGFPYWGQGTLVTVSS
VL: DIQMTQSPSSMSVSVGDRVTITCHSSQDITYNVGWLQQKPGKSFKGLIYHGSNLDHGVPSRFSGSGSGTDYTLTISSLQPEDFATYYCVQYDDFPWTFGGGTKLEIK
notes: Full length IgG1
EC50 (read off the curve) [3]: ~40 nM | KD ratio (Ab1/variant Ab) [1]: 14.9 | Kd [1]: 0.63 nM | koff [1]: 0.000118 s⁻¹ | kon [1]: 187000 M⁻¹ s⁻¹ | KD ratio (Ab1/variant Ab) [2]: 387 | Kd [2]: 5.9 nM | koff [2]: 2.26e-05 s⁻¹ | kon [2]: 3840 M⁻¹ s⁻¹ | IC50 (read off the curve) (EGFRvIII on U87MG cells): ~30 nM

B6: Antibody D (AbD) (antibody, V domains shown)
VH: EVQLQESGPGLVKPSQTLSLTCTVSGYSISSDFAWNWIRQPPGKGLEWMGYISYSGNTRYQPSLKSRITISRDTSKNQFFLKLNSVTAADTATYYCVTAGRGFPYWGQGTLVTVSS
VL: DIQMTQSPSSMSVSVGDRVTITCHSSQDINSNLGWLQQKPGKSFKGLIYHGANLHDGVPSRFSGSGSGTDYTLTISSLQPEDFATYYCVQYAEFPWTFGGGTKLEIK
notes: Full length IgG1
KD ratio (Ab1/variant Ab) [1]: 1.5 | Kd [1]: 6.1 nM | koff [1]: 0.000866 s⁻¹ | kon [1]: 141000 M⁻¹ s⁻¹ | KD ratio (Ab1/variant Ab) [2]: 4.1 | Kd [2]: 550 nM | koff [2]: 0.00322 s⁻¹ | kon [2]: 5820 M⁻¹ s⁻¹

B7: Antibody B (AbB) (antibody, V domains shown)
VH: EVQLQESGPGLVKPSQTLSLTCTVSGYSISNDFAWNWIRQPPGKGLEWMGYISYKGNTRYQPSLKSRITISRDTSKNQFFLKLNSVTAADTATYYCVTASRGFPWWGQGTLVTVSS
VL: DIQMTQSPSSMSVSVGDRVTITCHSSQDINSNIGWLQQKPGKSFKGLIYHGTNLDDGVPSRFSGSGSGTDYTLTISSLQPEDFATYYCVQYAQFPWTFGGGTKLEIK
notes: Converted from scFv into a full length IgG1 antibody
KD ratio (Ab1/variant Ab) [1]: 4.2 | Kd [1]: 2.2 nM | koff [1]: 0.000173 s⁻¹ | kon [1]: 78300 M⁻¹ s⁻¹ | KD ratio (Ab1/variant Ab) [2]: 10.5 | Kd [2]: 220 nM | koff [2]: 0.00119 s⁻¹ | kon [2]: 5460 M⁻¹ s⁻¹

B9: Antibody E (AbE) (antibody, V domains shown)
VH: EVQLQESGPGLVKPSQTLSLTCTVSGYSISSDFAWNWIRQPPGKGLEWMGYISYSGNTRYQPSLKSRITISRDTSKNQFFLKLNSVTAADTATYYCVTAGRGFPYWGQGTLVTVSS
VL: DIQMTQSPSSMSVSVGDRVTITCHSSQDINSNLGWLQQKPGKSFKGLIYHGSNLDHGVPSRFSGSGSGTDYTLTISSLQPEDFATYYCVQYDQFPWTFGGGTKLEIK
notes: Full length IgG1
KD ratio (Ab1/variant Ab) [1]: 1.2 | Kd [1]: 8.2 nM | koff [1]: 0.00158 s⁻¹ | kon [1]: 193000 M⁻¹ s⁻¹ | KD ratio (Ab1/variant Ab) [2]: 3.8 | koff [2]: 0.00367 s⁻¹ | kon [2]: 6170 M⁻¹ s⁻¹ | Kd [5]: 590 nM | fold increase in affinity over the KD of Ab1 [5]: ~4 fold

B10: Antibody C (AbC) (antibody, V domains shown)
VH: EVQLQESGPGLVKPSQTLSLTCTVSGYSISSDFAWNWIRQPPGKGLEWMGYISYSGNTRYQPSLKSRITISRDTSKNQFFLKLNSVTAADTATYYCVTAGRGFPYWGQGTLVTVSS
VL: DIQMTQSPSSMSVSVGDRVTITCHSSQDINSNIGWLQQKPGKSFKGLIYHGTNLDDGVPSRFSGSGSGTDYTLTISSLQPEDFATYYCVQYEQFPWTFGGGTKLEIK
notes: Full length IgG1
KD ratio (Ab1/variant Ab) [1]: 2.6 | Kd [1]: 3.6 nM | koff [1]: 0.00079 s⁻¹ | kon [1]: 220000 M⁻¹ s⁻¹

B11: Antibody F (AbF) (antibody, V domains shown)
VH: EVQLQESGPGLVKPSQTLSLTCTVSGYSISRDFAWNWIRQPPGKGLEWMGYISYSGNTRYQPSLKSRITISRDTSKNQFFLKLNSVTAADTATYYCVTASRGFPYWGQGTLVTVSS
VL: DIQMTQSPSSMSVSVGDRVTITCHSSQDINSNIGWLQQKPGKSFKGLIYHGTNLDDGVPSRFSGSGSGTDYTLTISSLQPEDFATYYCVQYAQFPWTFGGGTKLEIK
notes: Full length IgG1
KD ratio (Ab1/variant Ab) [1]: 2.4 | Kd [1]: 3.9 nM | koff [1]: 0.000324 s⁻¹ | kon [1]: 83600 M⁻¹ s⁻¹ | KD ratio (Ab1/variant Ab) [2]: 5.4 | Kd [2]: 420 nM | koff [2]: 0.000831 s⁻¹ | kon [2]: 1980 M⁻¹ s⁻¹

Results, then the binder that gave them:

KD ratio (Ab1/variant Ab) [1]: 31.8 | Kd [1]: 0.3 nM | koff [1]: 9.4e-05 s⁻¹ | kon [1]: 318000 M⁻¹ s⁻¹ | KD ratio (Ab1/variant Ab) [2]: 60.5 | Kd [2]: 38 nM | koff [2]: 8.27e-05 s⁻¹ | kon [2]: 2200 M⁻¹ s⁻¹
B4: Antibody J (AbJ) (antibody, V domains shown)
VH: EVQLQESGPGLVKPSQTLSLTCTVSGYSIGKDFAWNWIRQPPGKGLEWMGYISYSGNTRYQPSLKSRITISRDTSKNQFFLKLNSVTAADTATYYCVTASRGLPYWGQGTLVTVSS
VL: DIQMTQSPSSMSVSVGDRVTITCHSSQDITYNIGWLQQKPGKSFKGLIYHGANLDDGVPSRFSGSGSGTDYTLTISSLQPEDFATYYCVQYDEFPWTFGGGTKLEIK
notes: Full length IgG1

KD ratio (Ab1/variant Ab) [1]: 27.1 | Kd [1]: 0.35 nM | koff [1]: 6.95e-05 s⁻¹ | kon [1]: 200000 M⁻¹ s⁻¹ | KD ratio (Ab1/variant Ab) [2]: 722 | Kd [2]: 3.1 nM | koff [2]: 1.78e-05 s⁻¹ | kon [2]: 5650 M⁻¹ s⁻¹
B5: Antibody L (AbL) (antibody, V domains shown)
VH: EVQLQESGPGLVKPSQTLSLTCTVSGYSIGKDFAWNWIRQPPGKGLEWMGYISYNGNTRYQPSLKSRITISRDTSKNQFFLKLNSVTAADTATYYCVTASRGLPYWGQGTLVTVSS
VL: DIQMTQSPSSMSVSVGDRVTITCHSSQDITYNVGWLQQKPGKSFKGLIYHGSNLDHGVPSRFSGSGSGTDYTLTISSLQPEDFATYYCVQYDDFPWTFGGGTKLEIK
notes: Full length IgG1

KD ratio (Ab1/variant Ab) [1]: 63.1 | Kd [1]: 0.15 nM | koff [1]: 4.89e-05 s⁻¹ | kon [1]: 327000 M⁻¹ s⁻¹ | KD ratio (Ab1/variant Ab) [2]: 441 | Kd [2]: 5.2 nM | koff [2]: 4.07e-05 s⁻¹ | kon [2]: 7900 M⁻¹ s⁻¹
B8: Antibody H (AbH) (antibody, V domains shown)
VH: EVQLQESGPGLVKPSQTLSLTCTVSGYSIGKDFAWNWIRQPPGKGLEWMGYISYNGNTRYQPSLKSRITISRDTSKNQFFLKLNSVTAADTATYYCVTASRGLPYWGQGTLVTVSS
VL: DIQMTQSPSSMSVSVGDRVTITCHSSQDITYNIGWLQQKPGKSFKGLIYHGANLDDGVPSRFSGSGSGTDYTLTISSLQPEDFATYYCVQYDEFPWTFGGGTKLEIK
notes: Full length IgG1

EC50 (read off the curve) [3]: ~40 nM | KD ratio (Ab1/variant Ab) [1]: 15.8 | Kd [1]: 0.6 nM | koff [1]: 7.75e-05 s⁻¹ | kon [1]: 130000 M⁻¹ s⁻¹ | KD ratio (Ab1/variant Ab) [2]: 1370 | koff [2]: 7.92e-06 s⁻¹ | kon [2]: 4780 M⁻¹ s⁻¹ | IC50 (read off the curve) (EGFRvIII on U87MG cells): ~30 nM | Kd [5]: 1.7 nM | fold increase over the KD of Ab1 [5]: > 1300 fold
B12: Antibody K (AbK) (antibody, V domains shown)
VH: EVQLQESGPGLVKPSQTLSLTCTVSGYSISRDFAWNWIRQPPGKGLEWMGYISYNGNTRYQPSLKSRITISRDTSKNQFFLKLNSVTAADTATYYCVTASRGFPWWGQGTLVTVSS
VL: DIQMTQSPSSMSVSVGDRVTITCHSSQDITYNVGWLQQKPGKSFKGLIYHGSNLDHGVPSRFSGSGSGTDYTLTISSLQPEDFATYYCVQYDDFPWTFGGGTKLEIK
notes: Full length IgG1

Reference: patent US20150337042A1 (AbbVie / Abbott, published 2015)
